We go through 57 substances from the supplement of paper PMC10598134.

± gives the standard deviation.

This data set can be described thus: collision cross section of modified peptide (TIMS, N2, iRT-aligned); higher = larger / more extended gas-phase ion. The essentials:
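Synthetic peptide pools (~100 fmol/µL in 2% acetonitrile/0.1% formic acid, iRT standard spiked 1:40) were separated on a 120-min nanoflow C18 gradient at 60 °C. They were analysed on a timsTOF Pro/HT (dda-PASEF, nitrogen, ~2.4 mbar) and identified with MaxQuant. 1/K0 was calibrated with three reference ions and aligned run-wise to the median iRT peptide deviation. Collision cross section came from the Mason-Schamp equation, averaging 1–3 technical replicates of the most abundant feature per charge state.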

Setting [1] is: charge state: 3, modification: Methyl (R).
Setting [2] is: charge state: 2, modification: Citrullination (R).
The mark [3] stands for this setting: charge state: 2, modification: Methyl (R).
[4] abbreviates: charge state: 3, modification: Citrullination (R).
Where [5] appears, read: charge state: 2, modification: Hydroxyproline.
[6] abbreviates: charge state: 3, modification: Hydroxyproline.
The mark [7] stands for this setting: charge state: 2, modification: Nitro (Y).

Substance “GGFQNRGGGSGGGGNYR [_GGFQNR(Methyl (R))GGGSGGGGNYR_]” had a collision cross section under setting [1] of 475.78 ± 6.5 Å².

Take “GGGDRGGFGPGK [_GGGDR(Citrullination (R))GGFGPGK_]”: under setting [2], the collision cross section stood at 334.18 ± 0.75 Å².

Regarding “GGGDRGGFGPGK [_GGGDR(Methyl (R))GGFGPGK_]”, the collision cross section is, setting by setting: under setting [3], 341.42 ± 0.86 Å²; under setting [1], 412.06 ± 3 Å².

As for “GGGFGAHGRGR [_GGGFGAHGR(Citrullination (R))GR_]”, the collision cross section is, setting by setting: under setting [2], 343.86 ± 0.28 Å²; under setting [4], 412.59 ± 0.45 Å².

Take GGGFGAHGRGR [_GGGFGAHGR(Methyl (R))GR_]: the collision cross section was 351.67 ± 1.1 Å² under setting [3] and 421.56 ± 5.3 Å² under setting [1].

For the substance “GGGGGGGGGAPRGR [_GGGGGGGGGAPR(Citrullination (R))GR_]”, the collision cross section is, setting by setting: under setting [2], 333.41 ± 0.64 Å²; under setting [4], 420.82 ± 2.9 Å².

In the case of “GGGGGGGGGAPRGR [_GGGGGGGGGAPR(Methyl (R))GR_]”, the collision cross section is, setting by setting: under setting [3], 346.08 ± 2.1 Å²; under setting [1], 427.42 ± 3.8 Å².

On to “GGGGGRGGLHDFR [_GGGGGR(Citrullination (R))GGLHDFR_]”, for which the collision cross section reads like this: under setting [2], 380.63 ± 2.7 Å²; under setting [4], 438.48 ± 1.8 Å².

Under setting [1], “GGGGGRGGLHDFR [_GGGGGR(Methyl (R))GGLHDFR_]” showed a collision cross section of 457.91 ± 1.5 Å².

“GGGYGGDRGGYGGDR [_GGGYGGDR(Citrullination (R))GGYGGDR_]”: under setting [2], the collision cross section was 373.62 ± 7.7 Å².

In turn, “GGGYGGDRGGYGGDR [_GGGYGGDR(Methyl (R))GGYGGDR_]” came in with a collision cross section under setting [1] of 455.76 ± 1.3 Å².

Consider “GGNFGGRGGYGGGGGGSR [_GGNFGGR(Citrullination (R))GGYGGGGGGSR_]”, for which the collision cross section was determined as 392.17 ± 1 Å² under setting [2] and 481.82 Å² under setting [4].

On to “GGNFGGRGGYGGGGGGSR [_GGNFGGR(Methyl (R))GGYGGGGGGSR_]”, for which the collision cross section under setting [1] is on record as 462.43 ± 2.7 Å².

“GGPGAPGAPGPK [_GGPGAP(Hydroxyproline)GAPGPK_]” returned a collision cross section under setting [5] of 326.77 ± 0.24 Å².

In the case of “GGPGAPGAPGPKGESGDYK [_GGP(Hydroxyproline)GAPGAPGPKGESGDYK_]”, the collision cross section reads like this: under setting [5], 431.65 ± 0.34 Å²; under setting [6], 482.83 ± 2.3 Å².

Substance “GGPGGELPRGPQAGLGPR [_GGPGGELPR(Citrullination (R))GPQAGLGPR_]” registered a collision cross section under setting [2] of 413.18 ± 0.98 Å² and a collision cross section under setting [4] of 502.3 ± 0.77 Å².

In turn, “GGPGGELPRGPQAGLGPR [_GGPGGELPR(Methyl (R))GPQAGLGPR_]” came in with a collision cross section under setting [1] of 497.33 ± 2 Å².

In the case of “GGPGSTLSFVGKR [_GGPGSTLSFVGK(Acetyl (K))R_]”, the collision cross section is, setting by setting: (charge state: 2, modification: Acetyl (K)) 381.14 ± 0.21 Å²; (charge state: 3, modification: Acetyl (K)) 429.09 ± 1.1 Å².

With GGPGSTLSFVGKR [_GGPGSTLSFVGK(Biotin)R_], the collision cross section (charge state: 2, modification: Biotin) was determined as 397.77 Å².

With “GGPGSTLSFVGKR [_GGPGSTLSFVGK(Butyryl)R_]”, the collision cross section (charge state: 2, modification: Butyryl) stood at 388.34 ± 1.3 Å² and the collision cross section (charge state: 3, modification: Butyryl) stood at 432.12 ± 3.2 Å².

Regarding “GGPGSTLSFVGKR [_GGPGSTLSFVGK(Crotonyl)R_]”, the collision cross section was 386.64 ± 0.27 Å² (charge state: 2, modification: Crotonyl) and 427.61 ± 1.6 Å² (charge state: 3, modification: Crotonyl).

For the substance “GGPGSTLSFVGKR [_GGPGSTLSFVGK(Dimethyl (K))R_]”, the collision cross section runs as follows: (charge state: 2, modification: Dimethyl (K)) 393.41 ± 0.79 Å²; (charge state: 3, modification: Dimethyl (K)) 425.47 ± 2 Å².

With GGPGSTLSFVGKR [_GGPGSTLSFVGK(Formyl)R_], the collision cross section (charge state: 2, modification: Formyl) is recorded as 378.65 ± 0.9 Å².

Regarding “GGPGSTLSFVGKR [_GGPGSTLSFVGK(Gluratylation)R_]”, the collision cross section was found to be 392.32 ± 0.52 Å² (charge state: 2, modification: Glutarylation) and 441.96 ± 5.9 Å² (charge state: 3, modification: Glutarylation).

For “GGPGSTLSFVGKR [_GGPGSTLSFVGK(GlyGly (K))R_]”, the collision cross section is, setting by setting: (charge state: 2, modification: GlyGly (K)) 403.34 ± 0.36 Å²; (charge state: 3, modification: GlyGly (K)) 451.29 ± 1.3 Å².

Substance “GGPGSTLSFVGKR [_GGPGSTLSFVGK(Malonyl)R_]” returned a collision cross section (charge state: 2, modification: Malonyl) of 380.38 ± 0.0061 Å².

With “GGPGSTLSFVGKR [_GGPGSTLSFVGK(Methyl (K))R_]”, the collision cross section came to 391.3 ± 0.92 Å² (charge state: 2, modification: Methyl (K)) and 452.34 ± 5 Å² (charge state: 3, modification: Methyl (K)).

Where the note is “charge state: 2, modification: Propionyl”, “GGPGSTLSFVGKR [_GGPGSTLSFVGK(Propionyl)R_]” showed a collision cross section of 384.23 ± 0.44 Å².

With “GGPGSTLSFVGKR [_GGPGSTLSFVGK(Succinyl)R_]”, the collision cross section (charge state: 2, modification: Succinyl) was 387.5 ± 0.76 Å² and the collision cross section (charge state: 3, modification: Succinyl) worked out at 434.26 Å².

With “GGPGSTLSFVGKR [_GGPGSTLSFVGK(Trimethyl (K))R_]”, the collision cross section is reported as 401.16 Å² (charge state: 2, modification: Trimethyl (K)) and 424.62 ± 2.4 Å² (charge state: 3, modification: Trimethyl (K)).

“GGPGSTLSFVGKR [_GGPGSTLSFVGK(hydroxyisobutyryl)R_]”: under “charge state: 2, modification: hydroxyisobutyryl”, the collision cross section is reported as 388.57 ± 0.81 Å².

Turning to “GGQGPPGPQGPIGYPGPR [_GGQGPPGPQGPIGYP(Hydroxyproline)GPR_]”, the collision cross section under setting [5] is listed as 420.55 ± 2.1 Å² and the collision cross section under setting [6] is listed as 474.06 ± 0.36 Å².

GGRGTPGK [_GGRGTP(Hydroxyproline)GK_] returned a collision cross section under setting [5] of 291.37 ± 3.4 Å².

Substance “GGSAGGRGFFR [_GGSAGGR(Citrullination (R))GFFR_]” gave a collision cross section under setting [2] of 340.82 ± 0.52 Å².

GGSAGGRGFFR [_GGSAGGR(Methyl (R))GFFR_]: the collision cross section under setting [3] is 365.18 ± 0.78 Å² and the collision cross section under setting [1] is reported as 426.87 ± 4.1 Å².

Turning to “GGSGGRGVSVSSAR [_GGSGGR(Citrullination (R))GVSVSSAR_]”, the collision cross section under setting [2] was found to be 361.74 ± 2.3 Å² and the collision cross section under setting [4] amounted to 445.09 ± 2.9 Å².

With “GGSGGRGVSVSSAR [_GGSGGR(Methyl (R))GVSVSSAR_]”, the collision cross section by setting is: under setting [3], 384.84 ± 7.6 Å²; under setting [1], 464.84 ± 13 Å².

Take “GHPGPPGPPGEQGLPGLAGK [_GHPGPPGPP(Hydroxyproline)GEQGLPGLAGK_]”: the collision cross section amounted to 440.72 ± 0.83 Å² under setting [5] and 495.73 ± 18 Å² under setting [6].

Regarding GHYTIGK [_GHY(Nitro (Y))TIGK_], under setting [7], the collision cross section is reported as 323.5 ± 0.72 Å².

On to GHYTIGK [_GHY(Phospho (Y))TIGK_], for which the collision cross section (charge state: 2, modification: Phospho (Y)) amounted to 330.16 ± 0.068 Å².

“GIGRGTVQALHATGAR [_GIGR(Citrullination (R))GTVQALHATGAR_]” gave a collision cross section under setting [2] of 453.22 ± 0.95 Å² and a collision cross section under setting [4] of 491.89 ± 1.9 Å².

With “GIGRGTVQALHATGAR [_GIGR(Methyl (R))GTVQALHATGAR_]”, under setting [1], the collision cross section is 502.48 ± 1.9 Å².

As to GITGKPGPK [_GITGKP(Hydroxyproline)GPK_], the collision cross section under setting [5] is reported as 315.51 ± 1.9 Å².

Take “GKLGVPGLPGYPGR [_GKLGVP(Hydroxyproline)GLPGYPGR_]”: the collision cross section was 384.86 ± 0.79 Å² under setting [5] and 481 ± 2.9 Å² under setting [6].

Turning to “GLATFPSRGAK [_GLATFPSR(Citrullination (R))GAK_]”, the collision cross section under setting [2] stood at 353.86 ± 0.53 Å².

Consider GLATFPSRGAK [_GLATFPSR(Methyl (R))GAK_], for which the collision cross section turned out to be 371.86 ± 0.78 Å² under setting [3] and 447 ± 3.2 Å² under setting [1].

As to GLPGEKGER [_GLP(Hydroxyproline)GEKGER_], the collision cross section by setting is: under setting [5], 345.98 ± 0.8 Å²; under setting [6], 396.91 ± 2 Å².

GLPGEPGPR [_GLPGEP(Hydroxyproline)GPR_] registered a collision cross section under setting [5] of 312.79 ± 1.3 Å².

“GLPGEPGPRGLLGPK [_GLP(Hydroxyproline)GEPGPRGLLGPK_]” returned a collision cross section under setting [6] of 506.02 ± 0.37 Å².

For “GLPGEPGPRGLLGPK [_GLPGEP(Hydroxyproline)GPRGLLGPK_]”, under setting [5], the collision cross section was determined as 409.23 ± 0.28 Å².

As for “GLPGLAGDHGEFGEK [_GLP(Hydroxyproline)GLAGDHGEFGEK_]”, the collision cross section is listed as 432.14 ± 0.34 Å² under setting [5] and 497.67 ± 1.7 Å² under setting [6].

“GLPGPPGPQGESR [_GLP(Hydroxyproline)GPPGPQGESR_]”: under setting [5], the collision cross section amounted to 363.77 ± 1.6 Å².

GLQGPPGK [_GLQGPP(Hydroxyproline)GK_]: the collision cross section under setting [5] was determined as 294.56 ± 0.29 Å².

As to “GNDISSGTVLSDYVGSGPPK [_GNDISSGTVLSDY(Nitro (Y))VGSGPPK_]”, under setting [7], the collision cross section was 466.4 ± 0.42 Å².

For the setting “charge state: 3, modification: Nitro (Y)”, “GNDISSGTVLSDYVGSGPPKK [_GNDISSGTVLSDY(Nitro (Y))VGSGPPKK_]” gave a collision cross section of 549.52 Å².

Turning to “GNPGVGTQGPR [_GNP(Hydroxyproline)GVGTQGPR_]”, the collision cross section under setting [5] was determined as 327.91 ± 0.79 Å².

Take “GPKGQQGEPGPK [_GPKGQQGEP(Hydroxyproline)GPK_]”: the collision cross section under setting [5] is 357.43 ± 1.4 Å² and the collision cross section under setting [6] turned out to be 444.16 ± 2 Å².
